Experiment [1] addresses T1, Inorganic pyrophosphatase (PPA1) (human, UniProt Q15181 2-289).
T1 construct: The array carries full-length recombinant human proteins expressed in S. cerevisiae; also called Human PPA1
T1 sequence: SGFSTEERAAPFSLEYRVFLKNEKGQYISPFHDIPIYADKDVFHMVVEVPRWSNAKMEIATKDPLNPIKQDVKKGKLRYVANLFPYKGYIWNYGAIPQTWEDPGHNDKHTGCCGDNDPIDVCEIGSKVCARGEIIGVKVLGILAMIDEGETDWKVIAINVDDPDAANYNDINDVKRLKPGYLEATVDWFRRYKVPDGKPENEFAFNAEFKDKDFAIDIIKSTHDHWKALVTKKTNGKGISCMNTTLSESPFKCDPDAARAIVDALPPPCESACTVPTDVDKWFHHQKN
The experiment is described as follows: HuProt protein array, antibody at 1 µg/ml, Alexa-647 anti-human IgG Fc; F635 signal as z-score; PPA1 replicate 1. The source says: (§1) Large scale protein arrays are versatile and sensitive platforms for antibody specificity evaluation. They can be used for the evaluation of protein binding or affinity reagents that are widely employed in research and clinical applications. The microarray used in our target identification experiment provides the largest number of unique, full-length, individually purified human proteins on a single microscope slide. This allows thousands of interactions to be profiled in a high-throughput manner. The hill-length recombinant proteins are expressed in the yeast S. cerevisiae, purified, and printed on glass slides in duplicate along with a set of control proteins (GST, BSA, histones, IgG, etc.). Such microarray is not restricted to a particular type of surface coating, although the default is glass coated with ultra-thin nitrocellulose film for the non-covalent, yet irreversible, capture of active proteins to the surface. Fourteen Protein arrays were used for the antibody cross-reactivity assay of the samples. […] The antibody-antigen binding score was calculated for each protein represented on the array and expressed as z-scores. […]
(§2) Z score is the average Z score of the duplicate spots of a given protein (each protein is printed in duplicate on a HuProt™ array). The Z score of each spot on a given array is calculated according to the equation: […]

Experiment [2] has as its target T2, O-linked N-acetylglucosamine (GlcNAc) transferase (OGT) (human, UniProt O15294 2-1046).
T2 construct: The array carries full-length recombinant human proteins expressed in S. cerevisiae; also called Human OGT
T2 sequence: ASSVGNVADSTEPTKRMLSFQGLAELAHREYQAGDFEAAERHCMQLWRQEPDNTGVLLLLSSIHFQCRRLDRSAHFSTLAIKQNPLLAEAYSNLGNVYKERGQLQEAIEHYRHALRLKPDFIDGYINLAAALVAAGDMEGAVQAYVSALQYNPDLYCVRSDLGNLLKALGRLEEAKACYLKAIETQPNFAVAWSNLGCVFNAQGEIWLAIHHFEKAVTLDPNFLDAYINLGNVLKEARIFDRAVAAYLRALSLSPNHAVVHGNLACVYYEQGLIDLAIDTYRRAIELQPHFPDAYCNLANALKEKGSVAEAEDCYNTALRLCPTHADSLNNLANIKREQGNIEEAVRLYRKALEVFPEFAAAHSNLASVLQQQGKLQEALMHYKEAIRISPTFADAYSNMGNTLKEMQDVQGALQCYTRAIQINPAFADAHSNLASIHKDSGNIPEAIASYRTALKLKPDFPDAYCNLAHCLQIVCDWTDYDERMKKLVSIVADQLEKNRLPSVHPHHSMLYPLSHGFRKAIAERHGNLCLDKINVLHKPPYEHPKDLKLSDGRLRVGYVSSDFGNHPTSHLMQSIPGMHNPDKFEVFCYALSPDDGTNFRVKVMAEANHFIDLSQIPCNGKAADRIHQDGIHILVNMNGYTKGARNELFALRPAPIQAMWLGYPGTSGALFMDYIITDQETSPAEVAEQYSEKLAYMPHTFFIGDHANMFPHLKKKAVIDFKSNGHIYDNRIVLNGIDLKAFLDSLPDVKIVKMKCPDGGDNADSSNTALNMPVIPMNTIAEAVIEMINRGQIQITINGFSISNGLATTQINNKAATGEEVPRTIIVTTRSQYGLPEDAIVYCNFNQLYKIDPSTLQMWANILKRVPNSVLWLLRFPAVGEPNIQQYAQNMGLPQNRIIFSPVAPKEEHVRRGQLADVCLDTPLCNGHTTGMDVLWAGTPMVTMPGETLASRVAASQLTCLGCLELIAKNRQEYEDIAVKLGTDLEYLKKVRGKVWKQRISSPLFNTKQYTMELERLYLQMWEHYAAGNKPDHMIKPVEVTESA
The experiment is described as follows: HuProt protein array, antibody at 1 µg/ml, Alexa-647 anti-human IgG Fc; F635 signal as z-score; OGT replicate 1.
Description: as §1, §2

For experiment [3], the target named is T3, Alpha-taxilin (TXLNA) also known as interleukin-14A (human, UniProt P40222 1-546).
T3 construct: The array carries full-length recombinant human proteins expressed in S. cerevisiae; also called IL-14A; TXLNA/IL-14A
T3 sequence (P40222 whole entry): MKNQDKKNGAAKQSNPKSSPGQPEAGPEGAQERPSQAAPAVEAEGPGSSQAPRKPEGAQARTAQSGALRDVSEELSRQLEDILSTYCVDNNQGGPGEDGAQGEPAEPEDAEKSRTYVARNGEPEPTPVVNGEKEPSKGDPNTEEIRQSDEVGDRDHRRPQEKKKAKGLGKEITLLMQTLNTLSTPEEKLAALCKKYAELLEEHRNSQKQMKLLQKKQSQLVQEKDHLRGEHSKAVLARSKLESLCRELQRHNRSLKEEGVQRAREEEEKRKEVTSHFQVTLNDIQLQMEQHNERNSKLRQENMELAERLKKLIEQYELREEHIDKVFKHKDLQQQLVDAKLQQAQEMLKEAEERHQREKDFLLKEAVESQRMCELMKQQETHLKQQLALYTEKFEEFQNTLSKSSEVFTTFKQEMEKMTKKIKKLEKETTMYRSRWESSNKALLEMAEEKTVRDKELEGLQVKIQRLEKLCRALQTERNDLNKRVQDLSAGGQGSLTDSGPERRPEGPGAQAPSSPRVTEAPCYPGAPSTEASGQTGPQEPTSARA
As to the kind of experiment: HuProt protein array, antibody at 1 µg/ml, Alexa-647 anti-human IgG Fc; F635 signal as z-score; TXLNA replicate 1.
Description: as §1, §2

B1: TMEL1010 (antibody, V domains shown)
VH: QVQLVQSGAEVKKPGASVKVSCKASGYTFSSYGISWVRQAPGQGLEWMGWISAYNGNTNYAKKLQGRVTMTTDTSTSTAYLELRSLRSDDTAVYYCARGDGPFDYWGQGTLVTVSS
VL: EIVMTQSPATLSVSPGERATLSCWASQSVSSSLAWYQQKPGQAPRLLMYGASNRATGIPARFSGSGSGTEFTLTISSLQSEDFAVYYCQQYNKWPPDTFGQGTKLEIKR
notes: It was detected with an anti-human IgG Fc gamma secondary antibody
For B1, the binding result in experiment [1] was “binds”.

B2: TMEL1014 (antibody, V domains shown)
VH: SVQLVESGGGVVQPGRSLRLSCAASGFTFSSYTMHWVRQAPGKGLEWVALISYDGSNKYYADSVKGRFTISRDNPKNTLYLQMNSLRVEDTAVYYCARDWTLGYWGQGTLVTVSS
VL: VSSELTQDPAVSVALGQTVRITCQGDSLRNYYANWYQQKPGQAPILVIYDKNNRPSGIPDRFSGSSSGNTASLTITGAQAEDEADYYCNSRDSSGYHLVFGGGTKLTVLG
notes: as for B1
As for B2, in experiment [2], the binding result is given as “binds”.

B3: TMEL1011 (antibody, V domains shown)
VH: PVQLVQSGAEVKKPGSSVKVSCKASGGTFSSYSFNWVRQAPGQGLEWMARIIPILGLANYAQKFQGRVTLTADESTSTAYMELSSLRSEDTAIFYCAGMVLGQLGFDPWGQGTLVTVSS
VL: QFMLTQPHSVSESPGRTVTISCTRSSGSIARNYVHWYQHRPGSSPTTVIYEDDQRPSGVPDRFSGSIDSSSNSASLTISGLKPEDEADYFCQSYDSNIWVFGGGTKLTVLG
notes: as for B1
For B3, the binding result in experiment [3] is “binds”.

Source of the values: patent US20220031841A1 (ABSCI, published 2022).
